Source: the RNAGym collection of RNA variant scans (doi:10.1073/pnas.2313332121)
Variants at the floor of the assay were thinned out.

B1: TPR 5TU (parent)
chain: GGAUCUUCUCGAUCUAACAAAAAAGACAAAUCUGCCACAAAGCUUGAGAGCAUCUUCGGAUGCAGAGGCGGCAGCCUUCGGUGGCGCGAUAGCGCCAACGUUCUCAACUAUGACACGCAAAACGCGUGCUCCGUUGAAUGGAGUUUAUCAUG

Variants of: B1
Assay: polymerase ribozyme fitness, log enrichment relative to wild type (log ratio); higher = more active; in vitro selection for triplet polymerase activity
Procedure, shortened: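 Streptavidin-bead capture of gel-excised extended constructs, followed by RT-PCR, closed a single triplicate in vitro selection round. That round began by annealing PCR-built, transcribed mutant libraries of each subunit of a heterodimeric triplet polymerase ribozyme with a biotinylated primer, the partner subunit and triplets, then incubating them frozen at −7 °C. After Illumina sequencing of inputs and outputs, genotypes needed ≥10 input reads and ≥1 read per output. Fitness is the base-2 logarithm of genotype enrichment over wild-type enrichment, using inverse-variance-weighted replicate averages.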

Compared with C43U A89U G94U C105G C132A U151C, A41C A47C G88U A97U is higher in “polymerase ribozyme fitness (log ratio)” value: no more than -4.2 for the first, -4.03 for the second.

First: C43U C63U A73C U78A G84U U90G C93U A119U A142U
Second: A40U U82A C95G
The “polymerase ribozyme fitness (log ratio)” value of the first is lower: no more than -4.2 for the first, -1.43 for the second.

Going from A40U A41U G46A C57A C87A G92U to A41C A73G U145C, the “polymerase ribozyme fitness (log ratio)” value falls from 0.0643 to -1.73.

C43U C93G U109G and G42A U56A G67U G94A cannot be ordered by “polymerase ribozyme fitness (log ratio)” value: no more than -4.2 for the first, no more than -4.2 for the second.

Compared with A41U G84C C103G, G42U A60G U139C U148A is higher in “polymerase ribozyme fitness (log ratio)” value: no more than -4.2 for the first, -4.08 for the second.

First: A40U G92A A120U C132A G141C
Second: A41C A91G C118G
The “polymerase ribozyme fitness (log ratio)” value of the first is lower: no more than -4.2 for the first, -3.64 for the second.

C43G G86C A137G and A40C C69G C75U A98U U135G U151G cannot be ordered by “polymerase ribozyme fitness (log ratio)” value: no more than -4.2 for the first, no more than -4.2 for the second.

Going from A40U A60U to A40U A60G, the “polymerase ribozyme fitness (log ratio)” value rises from -0.238 to 0.828.

G42C A66C and C43U U61A G80A G94U A106C A122U cannot be ordered by “polymerase ribozyme fitness (log ratio)” value: no more than -4.2 for the first, no more than -4.2 for the second.

A40C C85G C108G and A41U C85U C99A C105A C118G A119C cannot be ordered by “polymerase ribozyme fitness (log ratio)” value: no more than -4.2 for the first, no more than -4.2 for the second.

Compared with A40C C93U, C43G G80U G84A C93A U134C is lower in “polymerase ribozyme fitness (log ratio)” value: 0.422 for the first, no more than -4.2 for the second.

G42A G48U G58U C75G G83A U104G and G42C C51U C103G cannot be ordered by “polymerase ribozyme fitness (log ratio)” value: no more than -4.2 for the first, no more than -4.2 for the second.

G42A G48A A97G A138U and G42U C57A cannot be ordered by “polymerase ribozyme fitness (log ratio)” value: no more than -4.2 for the first, no more than -4.2 for the second.

First: A40U A60G A89U U134C
Second: C43U C132U
The “polymerase ribozyme fitness (log ratio)” value of the first is higher: -0.16 for the first, no more than -4.2 for the second.

Compared with G42A G92C, A40G C54U C96U G141U is higher in “polymerase ribozyme fitness (log ratio)” value: -3.91 for the first, -2.2 for the second.

A41C C96U A107U C131A G133A U146C and A41G C76U G84U C85A A97U G100A G140U cannot be ordered by “polymerase ribozyme fitness (log ratio)” value: no more than -4.2 for the first, no more than -4.2 for the second.

A40G G80C U90G and A40C U56A G59A C87A A89C G112U A119U G143A cannot be ordered by “polymerase ribozyme fitness (log ratio)” value: no more than -4.2 for the first, no more than -4.2 for the second.

Going from G42U G50A C118U A122C to A41U G136A, the “polymerase ribozyme fitness (log ratio)” value rises from no more than -4.2 to 0.0389.

Compared with A41U C69U C87U, A41U U144G is higher in “polymerase ribozyme fitness (log ratio)” value: -2.75 for the first, 0.164 for the second.

Compared with A40C U77C C116A C125U, A40U U56A C75G is higher in “polymerase ribozyme fitness (log ratio)” value: no more than -4.2 for the first, -3.97 for the second.

U44A A49U C72G C79G G92U A150G and C43U U53G cannot be ordered by “polymerase ribozyme fitness (log ratio)” value: no more than -4.2 for the first, no more than -4.2 for the second.

A41U G68U C93U A106G and A41C C76U G81A A110C cannot be ordered by “polymerase ribozyme fitness (log ratio)” value: no more than -4.2 for the first, no more than -4.2 for the second.

Compared with A40U G92A A120C, A40U G140U is lower in “polymerase ribozyme fitness (log ratio)” value: -2.75 for the first, -3.81 for the second.

Going from C43G G67U G83U C93G C103U C116A to A40U A120U G133C, the “polymerase ribozyme fitness (log ratio)” value rises from no more than -4.2 to -1.72.

First: G42A A47C U77G G92U
Second: A41U G140A
The “polymerase ribozyme fitness (log ratio)” value of the first is lower: no more than -4.2 for the first, -3.78 for the second.

A41U G88A C95G A106C A120G and A40C U55G G59C C75A U82G C96G U111G U148A A150C cannot be ordered by “polymerase ribozyme fitness (log ratio)” value: no more than -4.2 for the first, no more than -4.2 for the second.

Going from A41C G67C G83A C95G G143A to A41U G58A A147U, the “polymerase ribozyme fitness (log ratio)” value rises from no more than -4.2 to 0.803.

G42C C51G U56A G83A C105U A122U U148A and G42C A89G G92A G126U G133A cannot be ordered by “polymerase ribozyme fitness (log ratio)” value: no more than -4.2 for the first, no more than -4.2 for the second.

Compared with A40U G94A G126A, G42A C114G G133U A150C is lower in “polymerase ribozyme fitness (log ratio)” value: -0.19 for the first, no more than -4.2 for the second.

First: G42A A47C U55A C85U
Second: A41G C75U C93G
The “polymerase ribozyme fitness (log ratio)” value of the first is lower: no more than -4.2 for the first, -2.6 for the second.

Compared with A41U G80A A97U, A41G C76U C93G A106G A122G C129A G141U is lower in “polymerase ribozyme fitness (log ratio)” value: -1.76 for the first, no more than -4.2 for the second.

G42C C43A U55G C57U A66C A137C G141C and C43U U78A C85A A115C cannot be ordered by “polymerase ribozyme fitness (log ratio)” value: no more than -4.2 for the first, no more than -4.2 for the second.

G42A G58C C79A C118U A142U and G42U C85A C99U C108G A110G cannot be ordered by “polymerase ribozyme fitness (log ratio)” value: no more than -4.2 for the first, no more than -4.2 for the second.

Compared with A41C U101G, A41G C57A G59A G68U is lower in “polymerase ribozyme fitness (log ratio)” value: -0.344 for the first, no more than -4.2 for the second.

Compared with A40C C96U A150G, A40C G128U G143U is lower in “polymerase ribozyme fitness (log ratio)” value: -1.3 for the first, no more than -4.2 for the second.

A40U C79G G88U A107G C149A and A40U G92A A119C A120C U148G cannot be ordered by “polymerase ribozyme fitness (log ratio)” value: no more than -4.2 for the first, no more than -4.2 for the second.

A41C C43A A91C C99U A113U and A40U C95U G124C G133U cannot be ordered by “polymerase ribozyme fitness (log ratio)” value: no more than -4.2 for the first, no more than -4.2 for the second.

First: A41C U53A U135A
Second: A41G C57U C85U C116U
The “polymerase ribozyme fitness (log ratio)” value of the first is lower: -1.07 for the first, 0.221 for the second.

First: C43U C54U U61A A64C G84U U127A C131G A142G
Second: A40C U55G C63U C93U
The “polymerase ribozyme fitness (log ratio)” value of the first is lower: no more than -4.2 for the first, -0.65 for the second.

A40C U61A A91G A97U G141U and A41C C43A A60G cannot be ordered by “polymerase ribozyme fitness (log ratio)” value: no more than -4.2 for the first, no more than -4.2 for the second.

First: A40G G58C G94A G141A
Second: G42U G80A U104C
The “polymerase ribozyme fitness (log ratio)” value of the first is higher: -3.65 for the first, no more than -4.2 for the second.

Compared with G42U A52C C93U, A41U C85G G126A is higher in “polymerase ribozyme fitness (log ratio)” value: no more than -4.2 for the first, -2.76 for the second.
